Experimental findings from the DeepSol protein solubility set are described below.

This series in a line: soluble on expression in E. coli; label from the status in PepcDB or PDB records.
On to “MSLEAAPAGSGPLRRTFLVPEIKSLDQYDFSRAKAAASLAWVLRAAFGGAEHVPPELWEPFYTDQYAQEHVKPPVTRLLLSAELYCRAWRQALPQLEPSPSPSALLALLARRGTVPSLPEHPVREADLKHQPILMGAHLAVIDALMVAFSFEWTKTLPGPLALSSLEHKLLFWVDTTVRRLQEKTEQEAAQRASPAAPLDGASPAQPSIRYRKDRAIARRAPCFPNVTTLQDLASGAALAATIHCYCPQLLRLEEVCLKDPMSVADSLYNLQLVQDFCASHLPRGCPLSLEDLLYVPPPLKVNLVVLLAEMYMCFEVLKPDFVQAKDLPDGHAVSPRNTETVPSQNNSGSSSSPSRLPGSRERDWENGSNASSPASVPEYTGPRLYKEPSAKSNKFIIHNALSHCCLAGKVNEPQKNRILEEIEKSKANHFLILFRDSSCQFRALYTLSGETEELSRLAGYGPRTVTPAMVEGIYKYNSDRKRFTQIPAKTMSMSVDAFTIQGHLWQSKKPTTPKKGGGTPKEGHHHHHH”, for which the “soluble on expression in E. coli” value is “soluble”.
Next, “MKQYIPFIRKDPVVPVIRLQGVIASGPRGGLSDQGLAAVIEKAFRRGKPAGVALVINSPGGSPVQSSLIAARIRRLASEKGVRVHAFVEDVAASGGYWLACAGDEIWVDESSLVGSIGVIFSSFGFHEFMARNGIERRVHTAGRSKSLADPFLPEKPEDVERLKALQEPIHRAFIEYVKRHRGTRLDLNADLFNADVWTGQEAVRLGLADGVAHLVPKLQENYGDKVRLVPYGQRRPFLQRLGMSLAGQALAEVENRALWARYGLLEHHHHHH”: “not soluble”.
With “MSSFLFENAAILDGQARELRENQHVLVEANRIIEVSDKPIKSKNSERINVNGMTLMPGLIDAHVHVKATIVNVGRLSDIPVSYLTADAGKFMRQMLMRGFTTVRDAGGADRGLADAVTDGLLIGPRLFVSGLSLSQTGGHGDMRPVTSDSHPITCACLASTQQLGRIADGVDECRRAARDELRKGAHQIKIMAGGGVASPNDPIQNTQYSVEEIRAICEEAAAAHTYVMAHAYVPAAISRAIENGVRTIEHGNLLDAEAAKVMSKHNAFLVPTNVTYRALYKHGKSFGFPEVSIGKLKDVLDVGLSAIEIAKNNGVKIGHGSDLLGECQVYQSDELSIKAEVVGNYEAIRHATEVNAEILNMTGELGVIKENALADILIVDGNPIKDVGFLSNDAKFIPNNNER”, the “soluble on expression in E. coli” value was “soluble”.
Next, “GAMGDDSMRMSHLKVGSAADIPINISETDLSLLTATVVPPSGREEPCLLKRLRNGHVGISFVPKETGEHLVHVKKNGQHVASSPIPVVISQSEIGDASRVRVSGQGLHEGHTFEPAEFIIDTRDAGYGGLSLSIEGPSKVDINTEDLEDGTCRVTYCPTEPGNYIINIKFADQHVPGSPFSVKVTGEGRVK”: “soluble”.
Next, “MSLAILPPDSLETALSQAQQATQAALQAGKNRLQIEILLPDLNPMGLAAGYLPLFAELGSDLKVFFADAGSAALARREWGETAYSVRGVNERLTPIEASDRAIVIVAPTPVEVTAIEQMCLTAGDRPFIMLNPRLQDVAVVGIGYAGRQLRERFLNTLEPCYYLRPLAETVILWRCYPQAWQIWQYRETAPTCLAEFEQRPTSEDIERALSALGKPRAQSFLSRLSALLRALQSEGHHHHHH”: “soluble”; “MAKVCYFTGRKTVSANNRSHAMNKTKRVAKPNLQKVTVLIDGKPKKVWASARALKSGKVERVLEHHHHHH”: “not soluble”.
With “HHHHHHLQGAAPTATVTPSSGLSDGTVVKVAGAGLQAGTAYDVGQCAWVDTGVLACNPADFSSVTADANGSASTSLTVRRSFEGFLFDGTRWGTVDCTTAACQVGLSDAAGNGPEGVAISFN” the entry was “soluble”; with “MQETMLDLRTVYECNRCLGCKTLHPQVGIINLENPSLEEDAVKFEFYAVLLIEDCPGGCCCCGRKYYDYSNATMVFLTPGEIFRMSKENTLPDKGYLLAFHPDLLFRTSLKNHIKNYTFFHYRKEEALHLSRRETEKVTCCLSNIEDELHHPIDTHSSIILSRHIELLLDYCTRYYERQFITRENKNKALLENMERLFVEYIASGRLQGGKLPTSGYMAGELDLSVAYFDDLLKFETGKTLEEYLQLKRLDIARHMLLQDGHTPAAVARKLGYPNVQCFSVLFKKITGVAPSDYRLSQN”, “not soluble”; with “MFPCLCTLKILTFQPKFQKIHDEMKALKAAGKQDEFAKKFVTKDAIFMGPLHEPANVTEAAKFAKSEMMAAVSKGEFNITIDEITPIGDVVIERCTIHAKVASGDKTGWSLCVWVKDGGAWKIRNSCTTFKVVPSA”, “not soluble”.
With “MGSDKIHHHHHHMAKLLPYQKRWINDRAPVKFWEKSRRIGASWGDAADSALVASKVKDDGGMSTYYLSYNKDMTRQYVADVAGWAKKFNLVAGELEEIVLADEDKDVTIYQVRFASGHVVQGLSSNPSNLRSKQGRVRIDEAAFVEDLGELLKAAIALTMWGGDVAVISTHNGEDSEFNQYIQDIRAGKREYSLHRTDLDDALAEGLYKAICSAKGLTWSVEAEIRWRQKLIADYGDGADEELFCVPSRSSGNWLSRNLIEPCMSAEIPVLRWSPPTANFVDWPLDRAYREVQDWCEGELRPLLDKLHREYVGCRHFFGEDFGRSGDLTVDVPLLELENLSLVTPFLLELRNAPYRTQEQMLAYFVDRLPRFSGGALDARGNGQALAEYARQRYGPELIQEVMLSQGWYREHMPPLKARLEDRTILLPKDAGVLDDLRGIKVFKGIARPPEASIKGKDGQRHCDSAVALALALYACNSIEAGEEWACATAGGGMARRMTHGY”, the “soluble on expression in E. coli” value is recorded as “not soluble”.
Consider “MESDPMFIGFGYDRHPLVEGRRLVLAGVEIDAPLGSLGHSDGDVLSHAIIDALLGAGCLGDIGTWFPETKEYKDANSLDLLKETVKILEERGFSVVNVDATVVASIVKLSPYREKIVENLKSALETSRVNVKFKSGNTLGFEGEERGISAYAVCLVEEKGCTKST”, for which the “soluble on expression in E. coli” value was “not soluble”.
With “MAHHHHHHMDIGELPDDQFPGAQYIPDLHGLGRERQALSCKVHEMKIPGQVSPYHVPEGEESSERETLYDENGLPIRTNSNDQEGDKKLWSWTDDGKLKLLCSQPIIPVSVVQGILRRDKIILIPQVEVTDFVVPKIYNQNIKHDVPKLDIKVECSNVEIPNVKYVEKEIIIPIITGYTHKFIPKWDVHEVPRPVVKYIGEQKIVEVEVPEIKYIDKIVEREVVVDTVEKRVPKIIEIPKYVDEVKYVWKPIEKIVYIQKLVPKFDVNLECPPPLIVPYPVQTVKQIPPVMVRKDVKFPDCDYTDFNSPYGSLPIPREYVDYYTSRQKAQKGIFSNCCESNCKNGEDHHGGETYYDVSPSSAMGVSEESLQNELNICNSSNPFVNTSADSILNKGGPRQALDAACM” the entry was “not soluble”.
With “MSLKNLFNKYNDMKGVSSVYISKAMMELNPNLFMKDLYIGKVAEHLNSVQVLSTHDNKVREEMAKDIRSLVQSSKYELLMKQKSTVSGSEVYVNRKGSKVKELIMVMNGASSLKFVYMEGDMTTDDIKKLMLYQSTSQNFIISGDLFYANNKPVTYFKKGNSDNQKDMAELSGTYNLNSIDTNYKEELSTLNDKLKRIDQGLKNMNIKEGHHHHHH” the entry was “soluble”; with “MIIEERKNHELNLESIDRDLRMENVRQSAEKLGWEHFARSVRRNLLEKRQTLDARTRLDVLGSLVFMKEHLPIDNDATIARKVQQLSEGLGEHCVFSTQNSGFSIRNPDVTIDIGVAEDQISTCKIGYFGQPLTDAPGALALMKNGEFSKLRDSITAILSSLPKEITLSEKNACKEAFRALDQLLIRDAADSSFTAINTGKYGFYAPRNELRSGRIYYVAEPVLIRLAEKEGKTKADASYLDLLPYIEISFFKHDKPSKLPVFTQTGEWSTFNDANVCICVRFNQGFLLSQQTIRKLSHIVPKSPLVRNYVNFYRYMTGRVGVKSNLKLLTQFPDEGDIQQQYQVDSKMLTKEDDVVAMEMYLSDFRDLSKLIETLRSEWKHASLWESILAICESSKGEQKEVNAVDMQLVLRRTEFFLQFDTDYGSMTMQIFEKSPSNYVVKTTSQITGESPSLDFDKMLTEKLNSTWSIPATLTFAITDLKCRINSVLNCVISFDSSSSSDKQHQNYWSISNNNTQLMQSAAQKSAAKCTKKKVTVLEVGPAIEPTQLVYTRENDEEFQGSLLSSFGEVDDYYVKTSTIGRTRPQPRPKREPNQLTSMDMMSAELDKSRHTMEGSMRDAQTSSFLDAARVRMKQSIGAAHAVGLASHQPPASPVAAAAAAPGGPMRHNSYPSGFEPPPSVAPYDFPADPSKKQRKQRAKKQPGEEPPAGRGKGGKKGRGAGAVGAAAAGGRKSAGGAGENPFGMDPMRPPMLQRSSSEQHNPNPHQMSQYQMQQYQQNQQFRMHQMQQQQQQQFQMQSPKNPLVPAYTDEDSDEECDPPPPPKPQVSTSSRMSSVPSHPPPPPQQLGNPMVGYPGMPLQSPNHLPLTPSPLSAPPKPFSPEQQHHFGMKMRETSYWKELERLETKPDVEKLKQQLSSSSSSSQAEASDPPSTSTEAQDPPKPSSSSAPPPPKKKLGLEAAISKIRGQQEQALQKQLQQQESVESELATPHPGSSGAPPLAPHQVNRARNLNDIFDDEADDSSPTADIKPSLQALQKPTDTSSQSTSSEPPPKKEPADEQPEREKEKLILKIPKMLKPVVDDRREDRKERDRDRDRDRDRDEDREKVRDKEDKAQREKDKKEKERERRRQRDRDRTEQKKSDREKEPSKKRKLEKKDEKEKDRREPERKKGKSDGKEYSKASTTSLIPTLSLKNFRIPKKDTVEEEKKDVKEEAPGPSSSTESKKEPPSAAPITRKESTTAPVAPAVQQQQQRKESFTALPSLPEQQQHHREPLLKKKPPLQPPPPPQMTGPPIGIYPGPPAPGNLPGSSRPSGNRKQPLPPPPPMIRGPPPDQMYRDRSGGGGGSMRGGFPPASHYHGGTSGVNKQVASYAQGLPPGMGPPVVKPHGNNYQASQWVRPPTHRDSSHSYHGMPSLGPPQLQREPPAPPPPQMIPLPKDPPVLREHPREHRAHRGGADDDGPDSPEEGTLRIDDE”, “not soluble”.
Next, “MSIISTKYLLQDAQANGYAVPAFNIHNAETIQAILEVCSEMRSPVILAGTPGTFKHIALEEIYALCSAYSTTYNMPLALHLDHHESLDDIRRKVHAGVRSAMIDGSHFPFAENVKLVKSVVDFCHSQDCSVEAELGRLGGVEDDMSVDAESAFLTDPQEAKRFVELTGVDSLAVAIGTAHGLYSKTPKIDFQRLAEIREVVDVPLVLHGASDVPDEFVRRTIELGVTKVNVATELKIAFAGAVKAWFAENPQGNDPRYYMRVGMDAMKEVVRNKINVCGSANRISA”: “soluble”; “MGSDKIHHHHHHLNTRDFEYFLALTQTRNFSQTAEQFAVSQPTITTAIKRLEDSFQAQLIIRDRRHHDIGVTSAGKQLAAHAQVILQQLTLAQQEIAWDQTNKIRFGLPPIIGNYFFPKIAPQLIAAGLMPQLQTVEAGSAALLNQIKQGDLDFALLGASGPLQEPDLTISQIGTAPFVIITSESDPLAQKDKVRFAELAMQKFVTLSEAFVHTRAFTWFQQQSAFIPNVVYQTGDVQLLKQMVVQNVGIGFLTNLAINPDDHLAAVKLTDPKQPVFTISIVRRKDRVLTPAMQHFNQILAAN”: “not soluble”.
With “MSGNYDKNNINNFIDKNDEHDMSDILHKINNEEKKYEEIKSYSECLELLYKTHALKLGLDNPKKLNESFGHPCDKYKTIHIAGTNGKGSVCYKIYTCLKIKKFKVGLFSSPHIFSLRERIIVNDEPISEKELIHLVNEVLNKAKKLYINPSFFEIITLVAFLHFLNKKVDYAIIETGIGGRLDATNILTKPEVIVITSIGYDHLNILGDNLPIICNEKIGIFKKDANVVIGPSVAIYKNVFDKAKELNCTIHTVVPEPRGERYNEENSRIALRTLEILNISIDYFLKSIIPIKPPLRIQYLATEQIQHIKKKFSPDNLEHNVQYPLAVILDVGHNETAIDRLCTDINYFHKGQNIRICISITKPRNLSVFHPFIAQFGDTLKDIFYLPSLNERTYDFEEIVEMLNNEEEIKNEIKELILSSSKKVGKWLAHEKQGNINEEDALKLYKRGCIPLIIKNAFLECCKDNSILLVCGTFFVFDEVLNVFDIHSDMQDTIFMNEPS”, the “soluble on expression in E. coli” value is “not soluble”.
